By EC50 is commonly meant the concentration that produces a half-maximal response. The term Kd denotes the free concentration of one partner at which half of the binding sites on the other are occupied at equilibrium, for simple one-to-one binding. Lower therefore signals higher affinity. For orientation: koff means the first-order rate constant of dissociation. A higher koff goes with fast dissociation. A word on the kon: it is the second-order rate constant of association. Low values mean slower complex formation, high ones faster complex formation.

The target in test [1] is T1, cyno SIRPγ ECD recombinant protein (cyno).
T1 construct: extracellular domain
In words: ELISA, cyno SIRPγ ECD. (In an ELISA, binding on a coated surface is turned into a signal by an enzyme label.)

Test [2] concerns the target full length human SIRPα v1 with a small beta-gal fragment (ED) fused to its C-terminal, expressed in K562 … (human, UniProt P78324 31-504). In words: cell-based or functional assay.
The target of test [3] is Human SIRPα v1 (antigen of the Octet and Biacore affinity measurements) (human, UniProt P78324 31-370, limits assumed). In words: BLI (Octet), 1:1 binding model. As to the method:
The purified chimeric antibodies were characterized for binding affinity against human SIRPα v1, human SIRPα v2 using Bio-Layer Interferometry technology (Octet system). The association and dissociation curves were fit with 1:1 binding model, and the Ka/Kd/KD values for each antibody were calculated.
In general terms: BLI is a label-free optical method that tracks binding on a fibre tip over time.

Human SIRPα v1 (antigen of the Octet and Biacore affinity measurements), sequence (P78324 31-370 limits assumed): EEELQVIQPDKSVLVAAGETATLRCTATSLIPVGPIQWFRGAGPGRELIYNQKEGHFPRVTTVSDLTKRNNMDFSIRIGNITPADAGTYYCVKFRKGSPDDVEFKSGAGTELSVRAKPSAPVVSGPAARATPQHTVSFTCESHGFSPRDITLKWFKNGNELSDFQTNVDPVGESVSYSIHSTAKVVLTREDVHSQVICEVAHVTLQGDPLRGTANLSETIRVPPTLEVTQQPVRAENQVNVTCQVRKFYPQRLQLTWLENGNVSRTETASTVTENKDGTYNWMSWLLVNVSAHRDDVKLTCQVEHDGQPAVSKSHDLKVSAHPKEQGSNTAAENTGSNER
full length human SIRPα v1 with a small beta-gal fragment (ED) fused to its C-terminal, expressed in K562 …, sequence (P78324 31-504): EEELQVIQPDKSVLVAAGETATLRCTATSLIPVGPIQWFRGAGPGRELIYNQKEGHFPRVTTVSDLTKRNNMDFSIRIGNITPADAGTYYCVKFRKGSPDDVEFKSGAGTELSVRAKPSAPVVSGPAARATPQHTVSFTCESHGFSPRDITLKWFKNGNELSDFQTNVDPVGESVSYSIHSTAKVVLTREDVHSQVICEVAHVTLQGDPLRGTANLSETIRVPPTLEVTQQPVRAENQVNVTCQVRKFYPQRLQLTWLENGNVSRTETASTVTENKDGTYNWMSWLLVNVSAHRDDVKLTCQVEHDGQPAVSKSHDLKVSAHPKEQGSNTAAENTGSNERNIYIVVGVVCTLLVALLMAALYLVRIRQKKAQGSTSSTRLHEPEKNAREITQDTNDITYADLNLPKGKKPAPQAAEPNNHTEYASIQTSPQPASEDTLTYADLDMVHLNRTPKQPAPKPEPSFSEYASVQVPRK

B1: 025c (antibody, V domains shown)
VH: EVQLQQSGAELVKPGASVKLSCTASGFNIKDYYMHWVKQRTEQGLEWIGRIDPEDGETKYAPKFQGKATITADTSSNTAYLQLSSLTSEDTAVYYCDRGLAYWGQGTLVTVSA
VL: QIVLTQSPAIMSASPGEKVTLTCSASSSVSSSYLYWYQQKPGSSPKLWIYSTSNLASGVPARFSGSGSGTSYSLTISSMEAEDAASYFCHQWSSYPYTFGGGTKLEIK
notes: also called chimeric antibody 025c; parental antibody of 025c
B1: in test [1], the EC50 was 0.36 nM and the “TOP OD450” value worked out at 3.07 OD450. Further, in test [2], the “SHP-1 recruitment blocking, IC50” value turned out to be 0.28 nM and the “SHP-1 recruitment blocking, TOP blocking (%)” value turned out to be 84.5%. In test [3], this molecule had a dissociation constant Kd of 2.46 nM, a koff of 0.00156 s⁻¹ and a kon of 636000 M⁻¹ s⁻¹.

Values taken from patent US20250270315A1 (ELPISCIENCE SUZHOU BIOPHARMA, published 2025).
